Data taken from a protein production outcome set (Wang et al. 2014).

Test: label from the status in PepcDB records
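Also: failed if final PepcDB status was selected cloned or expressed and not failed if soluble or beyond.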

Q: For “MDIVLIGGLWLNGSVWEGVASTLESLGHRPVPLTLPGQGDGAATATLDDQVAAVLAAVDAAPGRPMVVGHSAACALAWLAADRRPGRLAKVALIGGIPTPDGRPYADFFEVRDGVMPFPGWEPFQGPDAADLDEAARHELAAAAIPVPEAVARGVVRLSDERRYDVPVVVVCPEFTPAQARGWIDAGDVPELARAKHVDFADIDSGHWPMITKPAELARVLAAAAEGN”, which protein production is on record?
A: failed

Q: With “MDIVSVALQRYSTKAFDPSKKLTAEEADKIKTLLQYSPSSTNSQPWHFIVASTEEGKARVAKSAAGNYTFNERKMLDASHVVVFCAKTAMDDAWLERVVDQEDADGRFATPEAKAANDKGRRFFADMHRVSLKDDHQWMAKQVYLNVGNFLLGVAAMGLDAVPIEGFDAEVLDAEFGLKEKGYTSLVVVPVGHHSVEDFNAGLPKSRLPLETTLTEV” as the sequence, how does the protein production read?
A: not failed

Q: Which protein production does the source give for “MDKALTNHVIILSFDCLSALDFPILQKLPHFQSLIKKGTVVEKVEPIYPSVTYPSHSTIVTGNYPNKHGVVSNTLLQPGRESPDWHWYRKSIKGTTLYDEARKANLTTAALLWPVTGRANIDYNLPEIFPNRPWQNQVLVSLFSGSPLYQLDLNRRFGHIRNGLSQPELDDFVLASAVHTIQTKKPNIMFVHFTDLDTQRHYHGFESNETIAAIQRHDERLGKIIQALKESDLYEESTIIALGDHSALSENKSIQLNVLFHQRGLISLNKKRKLVDWKAYCQSCDGSAYVYVKDKNDTDTIREVQLLLEELLQNKQNGIEFILHDEAAKDCGADGNCLFMLEAREGYYFTENYTGDFIKEITEKDVTLSKKYTFGTHGYSPTKPNYETIFIAAGKGIKSGVTVPYMRLIDEGPTIARLLGLHLGETDGAIVEDLLQLLEHHHHHH” here?
A: not failed

Q: With “MDKESTKWIRFLGGKNLLYTLTILCLIAVTIFLFNTVSFIFKPIFVIFSAVLGPVLFGIILFYLLNPMVKRLEKKIPRVWAIAILYVLIIALLVLAGLQLFPIIQDQTEELIKQFPSFWKSTLQTVQEFMAKTPFAKDLESANESINQLWGKLANSFKDFAGDYLQTGAQGLGSVFSAVSSTFLTLFTGPIIAFFLLKDKEKFYRFVKGIIPPAFRPDFDEYSQIANIQIGDYLKGQVIASLVLGIMYWPAFLLIGLQFGSILALAAGILCIIPYIGPFIAFIPGLIIAFQDSTFMVVKFVIVWFAIQLIHGDFVIPRVMGDKLKVHPITILLVLLVMGELFGLMGVIFGIPMYCLVKVTVIYLFRKFKQRYNRFYGDNGEYEHTNFTKDQYLK” as the sequence, how does the protein production read?
A: failed

Q: For “MDKKYDITAVLNEDSSMTAISDQFQITLDARPKHTAKGFGPLAALLSGLAACELATANLMAPAKMITINKLLMNVTGSRSTNPTDGYFGLREINLHWEIHSPNSETEIKEFIDFVSKRCPAHNTLQGVSQLKINVNVTLVH”, which protein production is on record?
A: not failed

Q: Which protein production does the source give for “MDKNILAIIFVAVGTYLIRYIPIHLHSKIKNIDEKVKEINEILIYSSTSVISALFITSFIKFPIIFSNVLISTISLIFAIVSYKKWNNLGISILISVVIYYLASKFLISI” here?
A: failed

Q: For “MDKVSIIIPVYNVQSFLNECIESVLAQTYSNLEIILVNDGSTDNSGDICDYYSEIDGRIFVFHKNNGGLSDARNYGISRATGDYIYLLDSDDYLYKEDAIERMVEFSEKYNSEIVLGCYVEKREQHIINIVLEDEMIETISPVQAIQNIYNYDAYRAIFTVAHNKLYKRELFSTLCYPVGKLHEDEFLTYKLYLKAKNIIFFRYNTYAYRIRENSIMTGSYNIKRLHAVEALKERIYLLEKYPDLVFQSERALIKTMEVNLIELYKNNFYKEFHTLKTEYKKTIFDFIKKQRMLLKIKYYLKYCVVHFKILNCKRKKKINKLEHHHHHH”, which protein production is on record?
A: not failed

Q: For “MDKYLRLLSQGDRLGLTLIRLSIAIVFIWIGLLKFVPYEADSITPFVANSPFMSFFYEHPEEYRQHLTHEGELKPEERAWQTANNTYAFSDGLGVVELIIAALVLANPVSRWLGLAGGVLAFLTPFVTLSFLITTPEVWVMPLGDAHYGFPYLSGAGRLVLKDTLMLAGAVMIMADSARSLLLQRQ”, which protein production is on record?
A: failed

Q: For “MDKYRLLLLGGGRGLFDIDEDFMHWIDEFIEEHSNSIEITIVTGKNKKLYDNLTHKKPLKNIKVLGFVNDMYNLIRECDLMLTKPGGATIFEAIQSQTPVLVKMPKVGQEIENAKFIIDKGLGMIYSDDLDLKNIFYKLVSNEFDSIINFMKKNLKEFKTVIHPEKIADYISELIDNHLEHHHHHH”, which protein production is on record?
A: failed

Q: For “MDLDLRKLRYFVAVADRLHFGRAADALHIAQPALSRQIRALEQDLGASLFTRDSHGVTLTDAGRQLLDDAGPLLASAHAVRRRVSVAERGGRRLVVGFRAGIPVIPATRVFEAQHPDVVVDVQRMEWDDQASMLLDGRVDVAYVRLPLAETGLRLAPLYTEPLMVALPAGHRLAGKDEVTEADLAGEPLIWHADASRQPTRRPHPDSGLRVRGVEEKLEHVAAGRGISFVGRSEAVFFSRPDISYVPVPDLAPDQVCVAMAASRTSPLADSFFAAAQTTAEITAECGNYEMWRLASDAASKRD”, which protein production is on record?
A: failed

Q: Which protein production does the source give for “MDLESVKKYLEGDEDEKAKEPMVAKLPHRFLERFVTNGLKVDLIEPGRIVCSMKIPPHLLNAGKFLHGGATATLVDLIGSAVIYTAGASHSGVSVEINVSYLDAAFLDEEIEIESKALRVGKAVAVVSVELRKKTTGKIIAQGRHTKYFAPRSNL” here?
A: failed

Q: With “MDLKEIVQAGAFDLHIHTTASDGEYSPTAIVKKAKEIGLRTIAITDHDTLDGIEEAVIAGKRHGINVIPAIELTTKYKGTNVDILGYNVKASEKLQAILVQLKKHREGRAMQIIEKFNDIGFTITLDEVKQFSEDGVIARPHIAKAIVKKGYVLDYQTVFDEYLADGKPCAIDKMILTPEEGIKLIHEAGGKAILAHPVYLEDTLVRELLALDFDGIEVWHRNHDETDQEKYKMLATEFALIKTGGSDFHTDEHSLGQFGWKADEE” as the sequence, how does the protein production read?
A: failed

Q: For “MDLLLFSDVHGDREACQRLVDRAADVDVVVGAGDFCVARRNLQAPIETLSAIDTPTVLVPGNAETEDELEAQIDAAGWGAAHVLHGGGTTIDGTPFFGLGGGVPVTPFGPWSYDLTEDEARTLLSDCPEGAVLVAHSPPKDAVDRDSKGQSLGSVAVREAIEAHTPRLTVCGHIHGSWEETAHVGPTPVHNAGPHGRIWTLSEADGA”, which protein production is on record?
A: failed

Q: With “MDLPITLSKETPFEGEEITVSARVTNRGAAEAHNVPVAVYLGNPAQGGVEIGRDTISRIPVGGTGLARVQWKATRKLAGRAANPGVPVYAVVDPDNRVAESDKANLEHHHHHH” as the sequence, how does the protein production read?
A: not failed

Q: For “MDLQGSVIKLQAAEAAGCKSPGRLLIIYLRPDAPRPQACASSVPAAMNRFKASKFRHMEARPSRREAWISDIRAGTTATCGNHIKSSCSLIAFNSDRPGVLGIISLEGHEENKRHVTYLGCHSDLVTDLDFSPFDDFLLASGSADRTIKLWRLSSTGEALPSVPGVVLGPEELPVDVLQFHPTADGVLVSTAGRTVKVWDVAKQQHLTELEAHKDLVQSAVWSRDGATVGTACKDKQLRIFDPRARAQASQSTQAHENNRDIRLAWTGIQEYLVSTGFNQMREREAKLWDTRVFSSALASITLDTSPGSLIPLLDPDSGLLVLAGKGENQLYCYEVTPQQPALSPVTQCILENALRGAALVPRQALAVMNCEVLQVLQLSDTAIIPISHRVPRKAVEFHEDLFPDTAGSVPASDAHTWWAGDNQQVQKVSLNPAHRPHPRFTSSLLPTLEPSPNMEQPAELPRADTELSEGFSSPSSLVSPSTPSSLGLSLSSTSGIGTSPSQRSLQSLLGPSSKFRHAEGTILHRDSHITNLKGLNLTTPGESDGFCANRLRVAVPLLSSGGQVAVLELQKPGRLPDTALPTLQNGAAVMDLVWDPFDPHRLAVAGEDARIRLWRVPPGGLKNVLTTPETVLTGHTEKIYSLRFHPLAADVLASSSYDLTIRIWDLQAGTEQLRLQGHQDQIFSLAWSPDGKQLATVCKDGRVRVYDPRSSPLPLQDGPGPEGGRGARIVWVCNGGCLLVSGFDSRSERQLQLYMADALAEGPSALLGLDVAPSTLLPSYDPDTGLVLLTGKGDTRVFLYEVIPEAPFFLECNSFTSPDPHKGFILLPKTECDIQDVEFARCLRLRQTSLEPVAFRLPRVRKEFFQDDVFPDTAVTWASALDAKAWFKGANGQPRLLSLQPPGMTPVSQAPREVPARRTPSSAQYLEEKSDQQKKEELLNAMVAKLGNREDPLPQDSFEGVDEDEWD”, which protein production is on record?
A: failed

Q: For “MDLVAWETLSFPVVSAAFGASAFLIAVVGTRMTRAADRLADETGLGEAIFGAVLLGSTTSIAGITTSVTAAVDGLPSLAISNAIGGIAAQTVFLAVADMAYRPANLEHAAASVENLLQGALLSTLLAIPLLGMAGPRLDLFGIHPASVLLVAGYLYGIHLVAEARSTPYWVARQTDKTRQDTGAEGRESAALSTLWLEFVALSLVVGAAGYVIAKTGGQVAARTGLSEGLVGGLFTAVSTSLPELVTSVAAVRRGALTLAVGGIIGGNSFDVLFVAFSDVGYQEGSIYHAMTEQQVFIIALTLLLTGILLMGLLRRERRGAFGIGFESFLALVLYFGAFGLLFV”, which protein production is on record?
A: failed

Q: Which protein production does the source give for “MDLVSLVERIGEAPTAALFGLITGITFGVAAQRSRFCLRAATVEFARGRMEDKVAVWLLTFSTALVWVQAAQLMGLMNGADARMMAVPGSWSGAIIGGLMFGAGMVLARGCSGRLLVLAATGNLRSVVSGLIFAVVAQMSLSGLLSPLRDKLAALWITEGGRNMNLLSTFGLPEYGGLVLGLVCAVLALVLARRHRIGAARLVFASGVGFAVALGWVLTYALSQVAFEPVQIESATFTGPSAHTLMFFLDRNAVLEFDVGLVPGVFIGAMIAAALAGEMKIQAFDGPVTMRKAMIGAALMGFGGMLAGGCAIGAGVTGGSIFVGTAWAALFFMWVGAMATDFLIDQRAASPRAA” here?
A: failed

Q: With “MDLYLDPSILIILIVFGFVAAFIDSVVGGGGLIALPALLFTGLNPASAVATNKLASTMGSATSNIVFYRSGNLNLKSAFKLVPLTFIGSIIGAWTVHLMNPEVLKPLMLIMLGAVAIYTIFKKDWGSISTHKKLSGRHVIIFTFFVFAIGFYDGFLGPGTGSFLMFSLLFIGYDFLKAAGNAKLLNLGSNVGALLMFMYVGQVNYAYGFIMGIAQIAGGIVGSKFAIKKGSGYVRALFITVTCLLLAKNLYDYIQ” as the sequence, how does the protein production read?
A: failed

Q: With “MDMQHRIRQLFQASIETKQQALEVLPPYIEQASLVMVNALLNEGKILSCGNGGSAGDAQHFSSELLNRFERERPSLPAVALTTDSSTITSIANDYSYNEVFSKQIRALGQPGDVLLAISTSGNSANVIQAIQAAHDREMLVVALTGRDGGGMASLLLPEDVEIRVPSKITARIQEVHLLAIHCLCDLIDRQLFGSEE” as the sequence, how does the protein production read?
A: not failed

Q: For “MDNFVVTFARGFGTGGKAIASQLAKELGIHCYENRILTLASQLSGLDENVFQEVNEKLREEGGFTSFLRGLPRAKGYISRNEKFKSDDRLFEYQSQIINELADKESCVIVGKCADYVLKNRPNVVSIYIEAPRAFCVERTITNMGVTPEVANATIERTDKFRADYYKYYTHGNYWTNPVNYDLTLNSERVGVENCVKTIEQYLIIKGFIKADMIKPAGELI”, which protein production is on record?
A: failed

Q: With “MDNIPDGDWYCYECVNKATNERKCIVCGGHRPSPVGKMIYCDLCPRAYHADCYIPPLLKVPRGKWYCHGCISRAPPPKKRSAGGTSGSSSKSRRDRDRESGGSAKRRSDNSKTPAMEHMQQQQMPLAGGDSHHHHHQQPPSLNSSHDESM” as the sequence, how does the protein production read?
A: failed

Q: For “MDNLTHYLATTLRTLRHQRGWSLSRLAEISGVSKAMLGQIERNESSPTVATLWKIATGLNVPFSVFISPPQAEFPPTFDPQQQAMVITPLFPWDPELCFDYFSLLLAPGTVSESTPHKAGVIEHVVVIQGRLDMCTGGVWQTIDAGKGLRFAGDTAHTYRNSSDQTVHFHSLIHYPRD”, which protein production is on record?
A: failed
